According to US20260042834A1 (HBM ALPHA THERAPEUTICS, published 2026):
Where a chain is given by its changes, count along the chain named. Like-named read-outs stand apart in the source and are kept apart here. Each block holds one binder with its values, some of them ahead of it.

Legend:
[1] = target: T1, corticotropin-releasing hormone (CRH) peptide (human and mouse (same sequence), not fully specified); test: cell-based or functional assay
T1 peptide: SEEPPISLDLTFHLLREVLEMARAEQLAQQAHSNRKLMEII

[2] = target: T1, corticotropin-releasing hormone (CRH) …; test: cell-based or functional assay

hCRHR1 Luciferase Reporter Assay IC50 [2]: 1.04 nM
B2: PR302341-39 (antibody, human IgG1, kappa, V domains shown)
VH: QVQLVQSGAEVKKPGASVKVSCKASGYTFTDYFMKWVRQAPGQGLEWMGVINPNNADIFYNQKFKGRVTMTVDKSISTAYMELSRLRSDDTAVYYCARGTDRALFAYWGQGTLVTVSS
VL: DVVMTQSPLSLPVTLGQPASISCRSGQSIVHSSGNTYLEWYQQRPGQSPRLLIYKVSNRFSGVPDRFSGSGSGTDFTLKISRVEAEDLGVYYCFQGSHIPWTFGGGTKVEIKR

hCRHR1 Luciferase Reporter Assay IC50 [2]: 4.13 nM
B5: PR302341-66 (antibody, human IgG1, kappa, V domains shown)
VH: B2 VH with G44R, N55Q, A56G, M70I, V72R, K74T, I76A, R85S, D89E
VL: B2 VL

hCRHR1 Luciferase Reporter Assay IC50 [2]: 2.05 nM
B6: PR302341-63 (antibody, human IgG1, kappa, V domains shown)
VH: B2 VH with G44R, N55Q, A56G, M70I, V72R, K74T, I76A, R85S, D89E
VL: B2 VL with S33E

hCRHR1 Luciferase Reporter Assay IC50 [2]: 1.98 nM
B7: PR302341-42 (antibody, human IgG1, kappa, V domains shown)
VH: B2 VH with A56G
VL: B2 VL

hCRHR1 Luciferase Reporter Assay IC50 [2]: 3.12 nM
B8: PR302341-65 (antibody, human IgG1, kappa, V domains shown)
VH: B2 VH with G44R, N55S, A56G, M70I, V72R, K74T, I76A, R85S, D89E
VL: B2 VL

hCRHR1 Luciferase Reporter Assay IC50 [2]: 2.68 nM
B12: PR302341-62 (antibody, human IgG1, kappa, V domains shown)
VH: B2 VH with G44R, N55S, A56G, M70I, V72R, K74T, I76A, R85S, D89E
VL: B2 VL with S33E

hCRHR1 Luciferase Reporter Assay IC50 [2]: 2.01 nM
B14: PR302341-71 (antibody, human IgG1, kappa, V domains shown)
VH: B2 VH with G44R, A56G, M70I, V72R, K74T, I76A, R85S, D89E
VL: B2 VL with S33E

hCRHR1 Luciferase Reporter Assay IC50 [2]: 1.6 nM
B16: PR302341-70 (antibody, human IgG1, kappa, V domains shown)
VH: B2 VH with G44R, A56G, M70I, V72R, K74T, I76A, R85S, D89E
VL: B2 VL with S33D, G34A

hCRHR1 Luciferase Reporter Assay IC50 [2]: 0.616 nM
mCrhr1 Luciferase Reporter Assay IC50 [2]: 2.19 nM
B19: PR302341-34 (antibody, human IgG1, kappa, V domains shown)
VH: B2 VH with N55Q, A56G
VL: B2 VL with S33D, G34A

hCRHR1 Luciferase Reporter Assay IC50 [2]: 1.77 nM
B20: PR302341-36 (antibody, human IgG1, kappa, V domains shown)
VH: B2 VH with N55S, A56G
VL: B2 VL with S33E

hCRHR1 Luciferase Reporter Assay IC50 [2]: 1.09 nM
B21: PR302341-64 (antibody, human IgG1, kappa, V domains shown)
VH: B2 VH with G44R, M70I, V72R, K74T, I76A, R85S, D89E
VL: B2 VL

hCRHR1 Luciferase Reporter Assay IC50 [2]: 0.821 nM
mCrhr1 Luciferase Reporter Assay IC50 [2]: 1.66 nM
B22: PR302341-33 (antibody, human IgG1, kappa, V domains shown)
VH: B2 VH
VL: B2 VL with S33D, G34A

hCRHR1 Luciferase Reporter Assay IC50 [2]: 1.75 nM
B24: PR302341-35 (antibody, human IgG1, kappa, V domains shown)
VH: B2 VH
VL: B2 VL with S33E

hCRHR1 Luciferase Reporter Assay IC50 [2]: 0.471 nM
B25: PR302341-41 (antibody, human IgG1, kappa, V domains shown)
VH: B2 VH with N55S, A56G
VL: B2 VL with S33D

hCRHR1 Luciferase Reporter Assay IC50 [2]: 1.82 nM
B27: PR302341-40 (antibody, human IgG1, kappa, V domains shown)
VH: B2 VH with N55S, A56G
VL: B2 VL

hCRHR1 Luciferase Reporter Assay IC50 [2]: 0.792 nM
mCrhr1 Luciferase Reporter Assay IC50 [2]: 1.29 nM
B31: PR302341-37 (antibody, human IgG1, kappa, V domains shown)
VH: B2 VH with N55S, A56G
VL: B2 VL with S33D, G34A

hCRHR1 Luciferase Reporter Assay IC50 [2]: 1.73 nM
B32: PR302341-72 (antibody, human IgG1, kappa, V domains shown)
VH: B2 VH with G44R, A56G, M70I, V72R, K74T, I76A, R85S, D89E
VL: B2 VL

hCRHR1 Luciferase Reporter Assay IC50 [2]: 1.78 nM
B36: PR302341-38 (antibody, human IgG1, kappa, V domains shown)
VH: B2 VH with N55Q, A56G
VL: B2 VL

The next lines start with the binder.

B1: PR302341-1 (antibody, human IgG1, kappa, V domains shown)
VH: EVQLQQSGPELVKPGASVKMSCKASGYTFTDYFMKWVKQSHGESLEWIGVINPNNGDIFYNQKFKGKATLTVDKSSSTAFMQLNSLTSEDSAVYSCARGTDRALFAYWGQGTLVAVSA
VL: B2 VL with S33D, Y41F, L51R, L88V
hCRHR1 Luciferase Reporter Assay IC50 [1]: 0.397 nM

B3: PR302341-12 (antibody, human IgG1, kappa, V domains shown)
VH: B2 VH with A56G, I76T, R85S, D89E
VL: B2 VL with S7T, P12S, L15P, S33D, Q42L, R44K, R50Q
hCRHR1 Luciferase Reporter Assay IC50 [1]: 0.25 nM

B4: PR302341-4 (antibody, human IgG1, kappa, V domains shown)
VH: B1 VH
VL: B2 VL with S7T, L11S, S33D, S48P, S72A
hCRHR1 Luciferase Reporter Assay IC50 [1]: 0.107 nM

B9: PR302341-3 (antibody, human IgG1, kappa, V domains shown)
VH: B1 VH
VL: B2 VL with V2I, S7T, L11S, S33D, Y41L, S48P, S72A, L88V
hCRHR1 Luciferase Reporter Assay IC50 [1]: 0.128 nM

B10: PR302341-19 (antibody, human IgG1, kappa, V domains shown)
VH: B2 VH with A56G, V72R, K74T, I76T, A79V, R85S, D89E
VL: B2 VL with S33D
hCRHR1 Luciferase Reporter Assay IC50 [1]: 0.121 nM
mCrhr1 Luciferase Reporter Assay IC50 [1]: 0.365 nM

B11: PR302341-8 (antibody, human IgG1, kappa, V domains shown)
VH: B2 VH with A56G, I76T, R85S, D89E
VL: B2 VL with S33D
hCRHR1 Luciferase Reporter Assay IC50 [1]: 0.165 nM
mCrhr1 Luciferase Reporter Assay IC50 [1]: 0.357 nM

B13: PR302341-5 (antibody, human IgG1, kappa, V domains shown)
VH: B1 VH
VL: B2 VL with V2I, S7T, P12S, L15P, S33D, Q42L, R44K, R50Q, L88V
hCRHR1 Luciferase Reporter Assay IC50 [1]: 0.73 nM

B15: PR302341-31 (antibody, human IgG1, kappa, V domains shown)
VH: B2 VH with A56G
VL: B2 VL with S33D, G34A
hCRHR1 Luciferase Reporter Assay IC50 [2]: 0.498 nM

B17: PR302341-7 (antibody, human IgG1, kappa, V domains shown)
VH: B2 VH with A56G, I76T, R85S, D89E
VL: B2 VL with S33D, Y41F, L51R, L88V
hCRHR1 Luciferase Reporter Assay IC50 [1]: 0.23 nM

B18: PR302341-6 (antibody, human IgG1, kappa, V domains shown)
VH: B1 VH
VL: B2 VL with S7T, P12S, L15P, S33D, Q42L, R44K, R50Q
hCRHR1 Luciferase Reporter Assay IC50 [1]: 0.363 nM

B23: PR302341-2 (antibody, human IgG1, kappa, V domains shown)
VH: B1 VH
VL: B2 VL with S33D
hCRHR1 Luciferase Reporter Assay IC50 [1]: 0.168 nM

B26: PR302341-32 (antibody, human IgG1, kappa, V domains shown)
VH: B2 VH with N55Q, A56G
VL: B2 VL with S33E
hCRHR1 Luciferase Reporter Assay IC50 [2]: 1.89 nM

B28: PR302341-29 (antibody, human IgG1, kappa, V domains shown)
VH: B2 VH
VL: B2 VL with S33D
hCRHR1 Luciferase Reporter Assay IC50 [2]: 0.427 nM
mCrhr1 Luciferase Reporter Assay IC50 [2]: 1.39 nM

B29: PR302341-9 (antibody, human IgG1, kappa, V domains shown)
VH: B2 VH with A56G, I76T, R85S, D89E
VL: B2 VL with V2I, S7T, L11S, S33D, Y41L, S48P, S72A, L88V
hCRHR1 Luciferase Reporter Assay IC50 [1]: 0.234 nM

B30: PR302341-21 (antibody, human IgG1, kappa, V domains shown)
VH: B2 VH with G44R, A56G, M70I, I76A, R85S, D89E
VL: B2 VL with S33D
hCRHR1 Luciferase Reporter Assay IC50 [1]: 0.177 nM
mCrhr1 Luciferase Reporter Assay IC50 [1]: 0.541 nM

B33: PR302341-11 (antibody, human IgG1, kappa, V domains shown)
VH: B2 VH with A56G, I76T, R85S, D89E
VL: B2 VL with V2I, S7T, P12S, L15P, S33D, Q42L, R44K, R50Q, L88V
hCRHR1 Luciferase Reporter Assay IC50 [1]: 0.467 nM

B34: PR302341-28 (antibody, human IgG1, kappa, V domains shown)
VH: B2 VH with N55Q, A56G
VL: B2 VL with S33D
hCRHR1 Luciferase Reporter Assay IC50 [2]: 0.267 nM
mCrhr1 Luciferase Reporter Assay IC50 [2]: 2.43 nM

B35: PR302341-30 (antibody, human IgG1, kappa, V domains shown)
VH: B2 VH with A56G
VL: B2 VL with S33E
hCRHR1 Luciferase Reporter Assay IC50 [2]: 0.457 nM

B37: PR302341-13 (antibody, human IgG1, kappa, V domains shown)
VH: B2 VH with A56G, V72R, K74T, I76T, A79V, R85S, D89E
VL: DVLMTQTPLSLPVSLGDQASISCRSGQSIVHSDGNTYLEWYLQRPGQSPRLLIYKVSNRFSGVPDRFSGSGSGTDFTLKISRVGAEDLGIYYCFQGSHIPWTFGGGTKLEVKR
hCRHR1 Luciferase Reporter Assay IC50 [1]: 0.124 nM

B38: PR302341-17 (antibody, human IgG1, kappa, V domains shown)
VH: B2 VH with A56G, V72R, K74T
VL: B37 VL
hCRHR1 Luciferase Reporter Assay IC50 [1]: 0.104 nM

B39: PR302341-15 (antibody, human IgG1, kappa, V domains shown)
VH: B2 VH with G44R, A56G, M70I, V72R, K74T, I76A, R85S, D89E
VL: B37 VL
hCRHR1 Luciferase Reporter Assay IC50 [1]: 0.124 nM

B40: PR302341-18 (antibody, human IgG1, kappa, V domains shown)
VH: B2 VH with A56G
VL: B37 VL
hCRHR1 Luciferase Reporter Assay IC50 [1]: 0.169 nM

B41: PR302341-14 (antibody, human IgG1, kappa, V domains shown)
VH: B2 VH with A56G, I76T, R85S, D89E
VL: B37 VL
hCRHR1 Luciferase Reporter Assay IC50 [1]: 0.075 nM

B42: PR302341-16 (antibody, human IgG1, kappa, V domains shown)
VH: B2 VH with G44R, A56G, M70I, I76A, R85S, D89E
VL: B37 VL
hCRHR1 Luciferase Reporter Assay IC50 [1]: 0.225 nM
